Molecular target: the molecule itself
Assay: atomic force microscopy; alternating contact mode on DOPC/DOPS (1:1) supported lipid bilayers on mica, 10 mM TRIS pH 7.4, 140 mM NaCl, 2 mM Ca2+; 40 nM ANXA4 added with 40 nM ANXA1-GFP or ANXA2-GFP; 250 nm x 250 nm scans of the lower (ANXA4) domains, Fourier transform

B1: annexin A4 (natural protein, UniProt P09525 1-319, looked up)
chain: MATKGGTVKAASGFNAMEDAQTLRKAMKGLGTDEDAIISVLAYRNTAQRQEIRTAYKSTIGRDLIDDLKSELSGNFEQVIVGMMTPTVLYDVQELRRAMKGAGTDEGCLIEILASRTPEEIRRISQTYQQQYGRSLEDDIRSDTSFMFQRVLVSLSAGGRDEGNYLDDALVRQDAQDLYEAGEKKWGTDEVKFLTVLCSRNRNHLLHVFDEYKRISQKDIEQSIKSETSGSFEDALLAIVKCMRNKSAYFAEKLYKSMKGLGTDDNTLIRVMVSRAEIDMLDIRAHFKRLYGKSLYSFIKGDTSGDYRKVLLVLCGGDD
notes: annexin A4 (ANXA4), unlabelled recombinant protein from a PCR-amplified cDNA in pETM11-SUMO3; the introduction gives 320 amino acids for ANXA4 (cited); also called ANXA4; recombinant ANXA4; source: E. coli BL21 (DE3), purified (Ni-NTA IMAC, Superdex 200 SEC); not shown: 6xHis, N-terminal, cleaved; SUMO3 domain, N-terminal, cleaved
- stoichiometry N: 3

From PMC9800579, “Interplay of membrane crosslinking and curvature induction by annexins” (Scientific Reports, 2022)
